Measured values taken from patent publication US20240368668A1, “SUBSTRATES AND BIOMARKERS OF ADAMTS7” (The Broad Institute, Inc., priority 2021, published 2024).
Square brackets hold non-standard residues; d marks the D form. Ends that are not written are not given here. Met(O) = CS(=O)CC[C@H](N)C(=O)O

Biological target: T1, mouse ADAMTS7 (Mus musculus, UniProt Q68SA9)
T1 construct: Full-length mouse Adamts7 1-1857 (Uniprot Q68SA9, WT or E373Q catalytic mutant); expressed in transfected cells; host or cells: Human Coronary Artery Smooth Muscle Cells (HCA-SMC, Lonza), adenovirus 50 MOI
T1 sequence (Q68SA9 221-1657): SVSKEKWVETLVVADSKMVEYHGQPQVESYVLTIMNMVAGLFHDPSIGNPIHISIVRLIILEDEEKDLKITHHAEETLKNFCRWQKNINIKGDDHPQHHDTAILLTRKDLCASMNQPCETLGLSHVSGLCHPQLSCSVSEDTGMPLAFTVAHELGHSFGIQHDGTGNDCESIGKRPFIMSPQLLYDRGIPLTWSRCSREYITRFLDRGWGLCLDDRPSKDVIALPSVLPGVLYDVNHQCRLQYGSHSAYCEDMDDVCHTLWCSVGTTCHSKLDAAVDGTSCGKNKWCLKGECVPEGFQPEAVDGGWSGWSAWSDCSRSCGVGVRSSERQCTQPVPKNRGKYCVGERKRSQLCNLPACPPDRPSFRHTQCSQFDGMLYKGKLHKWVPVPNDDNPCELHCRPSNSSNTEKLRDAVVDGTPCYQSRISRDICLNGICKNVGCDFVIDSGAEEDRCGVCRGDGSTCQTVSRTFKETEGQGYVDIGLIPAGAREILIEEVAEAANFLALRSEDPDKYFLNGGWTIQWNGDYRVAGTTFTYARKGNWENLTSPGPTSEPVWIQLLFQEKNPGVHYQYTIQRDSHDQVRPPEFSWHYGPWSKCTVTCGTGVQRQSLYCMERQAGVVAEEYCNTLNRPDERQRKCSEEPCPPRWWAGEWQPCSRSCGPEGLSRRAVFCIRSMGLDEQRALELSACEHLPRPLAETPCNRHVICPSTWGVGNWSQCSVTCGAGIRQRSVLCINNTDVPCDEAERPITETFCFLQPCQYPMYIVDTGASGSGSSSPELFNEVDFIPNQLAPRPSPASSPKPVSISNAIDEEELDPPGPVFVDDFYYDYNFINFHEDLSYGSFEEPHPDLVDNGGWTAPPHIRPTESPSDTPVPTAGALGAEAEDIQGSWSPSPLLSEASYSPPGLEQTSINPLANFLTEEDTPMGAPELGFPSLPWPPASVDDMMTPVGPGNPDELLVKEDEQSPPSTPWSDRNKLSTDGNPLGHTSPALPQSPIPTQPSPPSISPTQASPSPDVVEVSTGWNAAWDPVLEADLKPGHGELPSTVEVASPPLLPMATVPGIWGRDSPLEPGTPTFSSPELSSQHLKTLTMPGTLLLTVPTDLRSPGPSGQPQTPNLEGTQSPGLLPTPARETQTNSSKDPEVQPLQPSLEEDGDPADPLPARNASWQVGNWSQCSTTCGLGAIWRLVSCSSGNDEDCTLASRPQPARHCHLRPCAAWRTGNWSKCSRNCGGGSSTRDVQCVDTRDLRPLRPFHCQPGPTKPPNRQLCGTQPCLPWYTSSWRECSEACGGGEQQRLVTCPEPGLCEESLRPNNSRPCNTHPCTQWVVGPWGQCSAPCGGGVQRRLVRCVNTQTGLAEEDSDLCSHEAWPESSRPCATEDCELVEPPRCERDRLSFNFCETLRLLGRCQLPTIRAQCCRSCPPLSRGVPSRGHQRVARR
Assay: TMT10 TAILS N-terminomics, SMC2 experiment (process replicates, trypsin/AspN digest)
Format: cell-based
Settings: for logFC.mWT.over.Luc: SMC2_TAILS HC; for logFC.mWT.over.Lux: ADAMTS7 WT over luciferase
In short: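 Full-length mouse ADAMTS7 (WT or E373Q mutant, C-terminal 3xFLAG) or luciferase was transduced via adenovirus, 50 MOI, into HCA-SMC (SMC1, SMC2) or HUVEC. SMC1: pooled media, technical triplicates 400 ug; SMC2: process triplicates 300 ug; HUVEC: process triplicates 200 ug, bFGF2 10 ng/ml.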

[1] = log fold change of N-terminal peptide, Ad-mADAMTS7 WT over Luc

Substance	logFC.mWT.over.Luc (log fold change, mWT over Luc)	logFC.mWT.over.Luc [1]	logFC.mWT.over.Lux (log fold change)
COL1A2_80 (QYDGKGVGLGPGPMGLMGPR; listed as Homo sapiens)	0.82	–	–
COL1A2_270 (VGNAGPAGPAGPR; listed as Homo sapiens)	3.42	–	–
COL1A2_305 (LTGAKGAAGLPGVAGAPGLPGPR; listed as Homo sapiens)	1.60	–	–
COL1A2_630 (VGTAGPSGPSGLPGER; listed as Homo sapiens)	2.03	–	–
COL1A2_866 (LLGAPGILGLPGSR; listed as Homo sapiens)	2.76	–	–
COL1A2_960 (AGAPGPHGPVGPAGKHGNR; listed as Homo sapiens)	2.71	–	–
COL1A2_1028 (LQGLPGIAGHHGDQGAPGSVGPAGPR; listed as Homo sapiens)	1.73	–	–
COL4A2_71 (YNGPPGLQGFPGLQGR; listed as Homo sapiens)	1.38	–	–
COL18A1_1505 (LQPPVVQLHDSNPYPR; listed as Homo sapiens)	1.46	–	–
LOXL1_218 (AVASAGVIYPYQPR; listed as Homo sapiens)	–	1.72	–
LOXL2_45 (HQPQAPANVAKIQLR; listed as Homo sapiens)	–	2.62	–
LTBP2_79 (VAGLQPVER; listed as Homo sapiens)	–	1.54	–
LTBP2_250 (SAAGEGTLAR; listed as Homo sapiens)	–	2.49	–
LTBP2_290 (QHVGLSR; listed as Homo sapiens)	–	2.94	–
LTBP2_502 (LVENSVETRPPPWLPASPGHSLW; listed as Homo sapiens)	–	2.66	–
LTBP3_103 (LTGSGFR; listed as Homo sapiens)	–	4.80	–
LTBP3_208 (FLVPLGPGQISA; listed as Homo sapiens)	–	1.51	–
MAP4_815 (AVASTGPSSR; listed as Homo sapiens)	–	1.68	–
MAP4_816 (VASTGPSSR; listed as Homo sapiens)	–	2.53	–
MMP1_100 (FVLTEGNPR; listed as Homo sapiens)	–	2.35	–
MMP1_185 (FQPGPGIGG; listed as Homo sapiens)	–	1.08	–
NBEA_1892 (LEKVAPLLR; listed as Homo sapiens)	–	2.04	–

Substance	logFC.mWT.over.Luc (log fold change, mWT over Luc)	logFC.mWT.over.Luc [1]	logFC.mWT.over.Lux (log fold change)
NID1_360 (FHQQHPQVI; listed as Homo sapiens)	–	2.47	–
NID2_291 (HSSVPLGR; listed as Homo sapiens)	–	3.16	–
NID2_951 (YAYPGAR; listed as Homo sapiens)	–	2.73	–
PAK4_141 (HSEAGGGSG; listed as Homo sapiens)	–	2.47	–
PLIN3_75 (VSGAQPILSKL; listed as Homo sapiens)	–	2.32	–
POSTN_727 (IITGPEIKYTR; listed as Homo sapiens)	–	2.51	–
PPP1R18_295 (LSETLTR; listed as Homo sapiens)	–	2.35	–
PTPRF_1859 (MRYEGVVDMFQTVKTLR; listed as Homo sapiens)	–	2.51	–
QSOX1_210 (HKGVAVR; listed as Homo sapiens)	–	1.20	–
SERBP1_56 (QAAAQTNSNAAGKQLR; listed as Homo sapiens)	–	–	3.97
SHC2_267 (VAKDPINQRACHIL; listed as Homo sapiens)	–	1.89	–
SPOCK1_27 (LAGGAGPNHGNFL; listed as Homo sapiens)	–	2.03	–
SRGN_59 (LLPGESNKIPR; listed as Homo sapiens)	–	3.71	4.23
THBS2_290 (LSENLKR; listed as Homo sapiens)	–	–	4.65
TNPO2_744 (VQ[Met(O)]VLNNLVEII[code n]RP[code n]TPKTLLE; listed as Homo sapiens)	–	4.08	–
TNS1_236 (QEGLAGYQR; listed as Homo sapiens)	–	1.49	–
TRGC2_86 (HRCIVRHENNK; listed as Homo sapiens)	–	3.16	–
TTN_5975 (VKEPPVEFTKPL; listed as Homo sapiens)	–	3.15	–
VAT1_42 (AASPPLLR; listed as Homo sapiens)	–	3.22	–
VIM_314 (QESTEYR; listed as Homo sapiens)	–	3.06	2.63
VIM_333 (LKGTNESLER; listed as Homo sapiens)	–	3.75	4.37
